Positions count from the first letter of the chain named. Read-outs that look alike come from different tables or passages of the source. Each block holds one binder with its values, some of them ahead of it.
Assays:
[1] = biological target: human CLDN18.2 (human); experiment: cell-based or functional assay
[2] = biological target: human CLDN18.2 (human); experiment: cell-based or functional assay; remark: listed apart in the source
[3] = biological target: T1, human CLDN18.2 (human); experiment: FACS, NUGC-4 cells (natural CLDN18.2)
T1 construct: also called claudin18.2
Method: (§1) Based on the FACS method, the binding activity of anti-CLDN18.2 humanized antibodies for the cell lines KATOIII (Cell Bank of the Chinese Academy of Sciences) and NUGC-4 (Cell Bank of the Chinese Academy of Sciences) naturally expressing CLDN18.2 was analyzed. […] See Example 3 for the specific method.

[4] = biological target: T1, human CLDN18.2; experiment: cell-based or functional assay; remark: listed apart in the source
[5] = biological target: T1, human CLDN18.2; experiment: FACS, KATOIII cells (natural CLDN18.2)
Method: as §1

[6] = biological target: T1, human CLDN18.2; experiment: cell-based or functional assay; remark: listed apart in the source
[7] = biological target: T1, human CLDN18.2; experiment: FACS, KATOIII cells (natural CLDN18.2); remark: listed apart in the source
Method: as §1

[8] = biological target: T1, human CLDN18.2; experiment: FACS, NUGC-4 cells (natural CLDN18.2); remark: listed apart in the source
Method: as §1

[9] = biological target: T1, human CLDN18.2; experiment: cell-based or functional assay; remark: listed apart in the source
[10] = biological target: T1, human CLDN18.2; experiment: cell-based or functional assay; remark: listed apart in the source

B2: 15F9 (antibody, human IgG1, kappa, V domains shown)
VH: QVQLVQSGSELKKPGASVKVSCKASGYTFTNYGINWVRQAPGQGLEWMGWINPNTGETTYAEEFKGRFVFSLDTSVSTAYLQISSLKAEDTAVYFCARLYYGNRFDSWGQGTLVTVSS
VL: DIVMTQSPDSLAVSLGERATINCKSSQSLLNSGNQRNYLTWYQQKPGQPPKLLIYWASTRESGVPDRFSGSGSGTDFTLTISSLQAEDVAVYYCQNAYYYPLTFGGGTKVEIKR
CDC EC50, NIH-3T3-CLDN18.2 target cells [1]: 0.25 nM
ADCC EC50, PBMC effector cells, KATOIII target cells [6]: ~0.0155 nM
ADCC Maximum killing (%), PBMC effector cells, KATOIII target cells [6]: 19.5%
ADCC EC50, PBMC effector cells, KATOIII target cells [4]: 0.03 nM
ADCC EC50, PBMC effector cells, NIH-3T3-CLDN18.2 target cells [4]: 0.18 nM
ADCC EC50, PBMC effector cells, NUGC-4 target cells [4]: 0.3 nM
ADCC Maximum killing (%), PBMC effector cells, KATOIII target cells [4]: 10.6%
ADCC Maximum killing (%), PBMC effector cells, NIH-3T3-CLDN18.2 target cells [4]: 22.6%
ADCC Maximum killing (%), PBMC effector cells, NUGC-4 target cells [4]: 4.34%

B3: humanized antibody hz40F6-2.4 (antibody, human IgG1, kappa, V domains shown)
VH: QVQLVESGGGVVQPGRSLRLSCTVSGFTLTSYGVYWVRQAPGKGLEWVAVVWAGGNTNYNSALKGRFTISKDNSKSTLYLQMNSLRAEDTAVYYCARDRGRLLAMDYWGQGTLVTVSS
VL: B2 VL with R36K, T40A, W56G, A97D, Y99F, Y100F, L102F, G106Q
EC50 [7]: 6.38 nM
EC50 [8]: 13.3 nM
ADCC EC50, Jurkat-CD16a v158-NFAT-luciferase effector cells, NIH-3T3-CLDN18.2 target cells [9]: 0.014 nM
ADCC EC50, Jurkat-CD16a v158-NFAT-luciferase effector cells, NUGC-4 target cells [9]: 0.03 nM
CDC EC50, NIH-3T3-CLDN18.2 target cells [10]: 0.89 nM

Second part, led by results:

CDC EC50, NIH-3T3-CLDN18.2 target cells [1]: 0.29 nM
ADCC EC50, Jurkat-CD16a v158-NFAT-luciferase effector cells, KATOIII target cells [2]: 0.139 nM
ADCC EC50, Jurkat-CD16a v158-NFAT-luciferase effector cells, U2OS-CLDN18.2 target cells [2]: 0.016 nM
EC50 [3]: 11.1 nM
ADCC EC50, PBMC effector cells, KATOIII target cells [4]: 0.048 nM
ADCC EC50, PBMC effector cells, NIH-3T3-CLDN18.2 target cells [4]: 0.33 nM
ADCC EC50, PBMC effector cells, NUGC-4 target cells [4]: 0.07 nM
EC50 [5]: 8.11 nM
B1: humanized antibody hz28G3-1.1 (antibody, human IgG1, kappa, V domains shown)
VH: QVQLVQSGAEVKKPGASVKVSCKTSGYSFTDYLMLWVRQAPGQGLEWMGNINPYYGRTTYALKFKGRVTMTVDRSTSTVYMELSSLRSEDTAVYYCARDGYSLRNAMDYWGQGTLVTVSS
VL: B2 VL with L30F, R36K, T40A, W56G, Y98H, Y99S, L102Y, G106Q
ADCC Maximum killing (%), PBMC effector cells, KATOIII target cells [4]: 11.5%
ADCC Maximum killing (%), PBMC effector cells, NIH-3T3-CLDN18.2 target cells [4]: 28.1%
ADCC Maximum killing (%), PBMC effector cells, NUGC-4 target cells [4]: 4.9%

EC50 [7]: 6.44 nM
EC50 [8]: 10.6 nM
ADCC EC50, Jurkat-CD16a v158-NFAT-luciferase effector cells, NIH-3T3-CLDN18.2 target cells [9]: 0.024 nM
ADCC EC50, Jurkat-CD16a v158-NFAT-luciferase effector cells, NUGC-4 target cells [9]: 0.017 nM
ADCC EC50, PBMC effector cells, KATOIII target cells [4]: 0.1 nM
ADCC EC50, PBMC effector cells, NIH-3T3-CLDN18.2 target cells [4]: 0.31 nM
ADCC EC50, PBMC effector cells, NUGC-4 target cells [4]: 0.12 nM
CDC EC50, NIH-3T3-CLDN18.2 target cells [10]: 0.55 nM
B4: humanized antibody hz40F6-1.4 (antibody, human IgG1, kappa, V domains shown)
VH: B3 VH
VL: B2 VL with R36K, T40A, W56G, S69T, A97D, Y98H, Y99F, Y100F, L102F, G106Q
ADCC Maximum killing (%), PBMC effector cells, KATOIII target cells [4]: 13.3%
ADCC Maximum killing (%), PBMC effector cells, NIH-3T3-CLDN18.2 target cells [4]: 24.6%
ADCC Maximum killing (%), PBMC effector cells, NUGC-4 target cells [4]: 2.83%

From US20240409629A1 (CHIA TAI TIANQING PHARMACEUTICAL GROUP, published 2024)
